Laboratory results as given in patent publication US20240034774A1 (Gilead, published 2024).

What was measured:
[1] = target: BSA (UniProt P02769 25-607); experiment: single-point ELISA, BSA control
[2] = target: gp120 Bal (HIV (Bal)); experiment: single-point ELISA at EC50 conc. of A-1
[3] = target: gp120 SHIV SF162 P3 (SHIV SF162 P3); experiment: single-point ELISA at EC50 conc. of A-1
[4] = target: gp120 CAAN (HIV (CAAN)); experiment: single-point ELISA at EC50 conc. of A-1

Binder	ELISA A450 [1] [A450]	ELISA A450 [2] [A450]	ELISA A450 [3] [A450]	ELISA A450 [4] [A450]
1.35.1-1 (antibody, human IgG1, kappa) heavy: QVQLVQSGAEVKKPGASVRVSCKASGYNIRDYFMHWWRQAPGQGLQWVGWINPKTGQPNNPRQFQGRVTMTRHASWDFDTFSFYMDLSRLRSDDTATYFCARQRTDYWDFDVWGQGTMVTVSSASTKGPSVFPLAPSSKSTSGGTAALGCLVKDYFPEPVTVSWNSGALTSGVHTFPAVLQSSGLYSLSSVVTVPSSSLGTQTYICNVNHKPSNTKVDKKVEPKSCDKTHTCPPCPAPELLAGPDVFLFPPKPKDTLMISRTPEVTCVVVDVSHEDPEVKFNWYVDGVEVHNAKTKPREEQYNSTYRVVSVLTVLHQDWLNGKEYKCKVSNKALPLPEEKTISKAKGQPREPQVYTLPPSREEMTKNQVSLTCLVKGFYPSDIAVEWESNGQPENNYKTTPPVLDSDGSFFLYSKLTVDKSRWQQGNVFSCSVLHEALHSHYTQKSLSLSPGK light: DIQMTQSPSSLSASVGDTVTITCQANGYLNWYQQRRGKAPKLLIYDGSKLERGVPSRFSGRRWGQEYNLTINNLQPEDIATYFCQVYEFVVPGTRLDLKRTVAAPSVFIFPPSDEQLKSGTASVVCLLNNFYPREAKVQWKVDNALQSGNSQESVTEQDSKDSTYSLSSTLTLSKADYEKHKVYACEVTHQGLSSPVTKSFNRGEC	0.07	0.84	0.8	0.87
1.35.32-1 (antibody, human IgG1, kappa) heavy: QVQLVQSGAEVKKPGASVRVSCKASGYNIRDYFMHWWRQAPGQGLQWVGWINPKTGQPNNPRQFQGRVTMTRHASWDFDTFSFYMDLSRLRSDDTATYFCARQRTDYWDFDVWGQGTMVTVSSASTKGPSVFPLAPSSKSTSGGTAALGCLVKDYFPEPVTVSWNSGALTSGVHTFPAVLQSSGLYSLSSVVTVPSSSLGTQTYICNVNHKPSNTKVDKKVEPKSCDKTHTCPPCPAPELLAGPDVFLFPPKPKDTLMISRTPEVTCVVVDVSHEDPEVKFNWYVDGVEVHNAKTKPREEQYNSTYRVVSVLTVLHQDWLNGKEYKCKVSNKALPLPEEKTISKAKGQPREPQVYTLPPSREEMTKNQVSLTCLVKGFYPSDIAVEWESNGQPENNYKTTPPVLDSDGSFFLYSKLTVDKSRWQQGNVFSCSVLHEALHSHYTQKSLSLSPGK light: DIQMTQSPSSLSASVGDTVTITCQANGYLNWYQQRRGKAPKLLIYDGSKLERGVPSRFSGRRWGQEYTLTISSLQPEDIATYFCQVYEFVTPGTRLDLKRTVAAPSVFIFPPSDEQLKSGTASVVCLLNNFYPREAKVQWKVDNALQSGNSQESVTEQDSKDSTYSLSSTLTLSKADYEKHKVYACEVTHQGLSSPVTKSFNRGEC	0.06	0.96	0.58	1.01
1.35.34-1 (antibody, human IgG1, kappa) heavy: QVQLVQSGAEVKKPGASVRVSCKASGYNIRDYFMHWWRQAPGQGLQWVGWINPKTGQPNNPRQFQGRVTMTRHASWDFDTFSFYMDLSRLRSDDTATYFCARQRTDYWDFDVWGQGTMVTVSSASTKGPSVFPLAPSSKSTSGGTAALGCLVKDYFPEPVTVSWNSGALTSGVHTFPAVLQSSGLYSLSSVVTVPSSSLGTQTYICNVNHKPSNTKVDKKVEPKSCDKTHTCPPCPAPELLAGPDVFLFPPKPKDTLMISRTPEVTCVVVDVSHEDPEVKFNWYVDGVEVHNAKTKPREEQYNSTYRVVSVLTVLHQDWLNGKEYKCKVSNKALPLPEEKTISKAKGQPREPQVYTLPPSREEMTKNQVSLTCLVKGFYPSDIAVEWESNGQPENNYKTTPPVLDSDGSFFLYSKLTVDKSRWQQGNVFSCSVLHEALHSHYTQKSLSLSPGK light: DIQMTQSPSSLSASVGDTVTITCQANGYLNWYQQRRGKAPKLLIYDGSNLERGVPSRFSGRRWGQEYTLTISSLQPEDIATYFCQVYEFVTPGTRLDIKRTVAAPSVFIFPPSDEQLKSGTASVVCLLNNFYPREAKVQWKVDNALQSGNSQESVTEQDSKDSTYSLSSTLTLSKADYEKHKVYACEVTHQGLSSPVTKSFNRGEC	0.06	1	0.58	0.85
1.36.32-1 (antibody, human IgG1, kappa) heavy: QVQLVQSGAEVKKPGASVRVSCKASGYNIRDYFMHWWRQAPGQGLQWVGWINPKTGQPNNPRQFQGRVTMTRHASWDFDTFSAYMDLSRLRSDDTATYFCARQRTDYWDFDVWGQGTMVTVSSASTKGPSVFPLAPSSKSTSGGTAALGCLVKDYFPEPVTVSWNSGALTSGVHTFPAVLQSSGLYSLSSVVTVPSSSLGTQTYICNVNHKPSNTKVDKKVEPKSCDKTHTCPPCPAPELLAGPDVFLFPPKPKDTLMISRTPEVTCVVVDVSHEDPEVKFNWYVDGVEVHNAKTKPREEQYNSTYRVVSVLTVLHQDWLNGKEYKCKVSNKALPLPEEKTISKAKGQPREPQVYTLPPSREEMTKNQVSLTCLVKGFYPSDIAVEWESNGQPENNYKTTPPVLDSDGSFFLYSKLTVDKSRWQQGNVFSCSVLHEALHSHYTQKSLSLSPGK light: DIQMTQSPSSLSASVGDTVTITCQANGYLNWYQQRRGKAPKLLIYDGSKLERGVPSRFSGRRWGQEYTLTISSLQPEDIATYFCQVYEFVTPGTRLDLKRTVAAPSVFIFPPSDEQLKSGTASVVCLLNNFYPREAKVQWKVDNALQSGNSQESVTEQDSKDSTYSLSSTLTLSKADYEKHKVYACEVTHQGLSSPVTKSFNRGEC	0.07	0.96	0.18	0.5
1.35.31-1 (antibody, human IgG1, kappa) heavy: QVQLVQSGAEVKKPGASVRVSCKASGYNIRDYFMHWWRQAPGQGLQWVGWINPKTGQPNNPRQFQGRVTMTRHASWDFDTFSFYMDLSRLRSDDTATYFCARQRTDYWDFDVWGQGTMVTVSSASTKGPSVFPLAPSSKSTSGGTAALGCLVKDYFPEPVTVSWNSGALTSGVHTFPAVLQSSGLYSLSSVVTVPSSSLGTQTYICNVNHKPSNTKVDKKVEPKSCDKTHTCPPCPAPELLAGPDVFLFPPKPKDTLMISRTPEVTCVVVDVSHEDPEVKFNWYVDGVEVHNAKTKPREEQYNSTYRVVSVLTVLHQDWLNGKEYKCKVSNKALPLPEEKTISKAKGQPREPQVYTLPPSREEMTKNQVSLTCLVKGFYPSDIAVEWESNGQPENNYKTTPPVLDSDGSFFLYSKLTVDKSRWQQGNVFSCSVLHEALHSHYTQKSLSLSPGK light: DIQMTQSPSSLSASVGDTVTITCQANGYLNWYQQRRGKAPKLLIYDGSKLERGVPSRFSGRRWGQEYTLTISSLQPEDIATYFCQVYEFVVPGTNLDLKRTVAAPSVFIFPPSDEQLKSGTASVVCLLNNFYPREAKVQWKVDNALQSGNSQESVTEQDSKDSTYSLSSTLTLSKADYEKHKVYACEVTHQGLSSPVTKSFNRGEC	0.07	1.05	0.68	0.99
1.35.33-1 (antibody, human IgG1, kappa) heavy: QVQLVQSGAEVKKPGASVRVSCKASGYNIRDYFMHWWRQAPGQGLQWVGWINPKTGQPNNPRQFQGRVTMTRHASWDFDTFSFYMDLSRLRSDDTATYFCARQRTDYWDFDVWGQGTMVTVSSASTKGPSVFPLAPSSKSTSGGTAALGCLVKDYFPEPVTVSWNSGALTSGVHTFPAVLQSSGLYSLSSVVTVPSSSLGTQTYICNVNHKPSNTKVDKKVEPKSCDKTHTCPPCPAPELLAGPDVFLFPPKPKDTLMISRTPEVTCVVVDVSHEDPEVKFNWYVDGVEVHNAKTKPREEQYNSTYRVVSVLTVLHQDWLNGKEYKCKVSNKALPLPEEKTISKAKGQPREPQVYTLPPSREEMTKNQVSLTCLVKGFYPSDIAVEWESNGQPENNYKTTPPVLDSDGSFFLYSKLTVDKSRWQQGNVFSCSVLHEALHSHYTQKSLSLSPGK light: DIQMTQSPSSLSASVGDTVTITCQANGYLNWYQQRRGKAPKLLIYDGSNLERGVPSRFSGRRWGQEYTLTISSLQPEDIATYFCQVYEFVVPGTNLDIKRTVAAPSVFIFPPSDEQLKSGTASVVCLLNNFYPREAKVQWKVDNALQSGNSQESVTEQDSKDSTYSLSSTLTLSKADYEKHKVYACEVTHQGLSSPVTKSFNRGEC	0.06	0.9	0.65	0.91
1.36.34-1 (antibody, human IgG1, kappa) heavy: QVQLVQSGAEVKKPGASVRVSCKASGYNIRDYFMHWWRQAPGQGLQWVGWINPKTGQPNNPRQFQGRVTMTRHASWDFDTFSAYMDLSRLRSDDTATYFCARQRTDYWDFDVWGQGTMVTVSSASTKGPSVFPLAPSSKSTSGGTAALGCLVKDYFPEPVTVSWNSGALTSGVHTFPAVLQSSGLYSLSSVVTVPSSSLGTQTYICNVNHKPSNTKVDKKVEPKSCDKTHTCPPCPAPELLAGPDVFLFPPKPKDTLMISRTPEVTCVVVDVSHEDPEVKFNWYVDGVEVHNAKTKPREEQYNSTYRVVSVLTVLHQDWLNGKEYKCKVSNKALPLPEEKTISKAKGQPREPQVYTLPPSREEMTKNQVSLTCLVKGFYPSDIAVEWESNGQPENNYKTTPPVLDSDGSFFLYSKLTVDKSRWQQGNVFSCSVLHEALHSHYTQKSLSLSPGK light: DIQMTQSPSSLSASVGDTVTITCQANGYLNWYQQRRGKAPKLLIYDGSNLERGVPSRFSGRRWGQEYTLTISSLQPEDIATYFCQVYEFVTPGTRLDIKRTVAAPSVFIFPPSDEQLKSGTASVVCLLNNFYPREAKVQWKVDNALQSGNSQESVTEQDSKDSTYSLSSTLTLSKADYEKHKVYACEVTHQGLSSPVTKSFNRGEC	0.07	1.01	0.15	0.43
1.31.35-1 (antibody, human IgG1, kappa, V domains shown) VH: QVQLVQSGAEVTKPGASVRVSCEASGYNIRDYFIHWWRQAPGQGLQWVGWINPKTGQPNNPRQFQGRVSLTRHASWDFDTFSFYMDLKALRSDDTATYFCARQRSDYWDFDVWGSGTQVTVSS VL: DIQMTQSPSSLSASVGDRVTITCQANGYLNWYQQKPGKAPKLLIYDGSNLETGVPSRFSGSRWGQEYTLTISSLQPEDIATYFCQVYEFVGPGTNLDIKR	0.06	0.9	0.61	0.77
1.32.35-1 (antibody, human IgG1, kappa, V domains shown) VH: QVQLVQSGAEVTKPGASVRVSCEASGYNIRDYFIHWWRQAPGQGLQWVGWINPKTGQPNNPRQFQGRVSLTRHASWDFDTFSFYMDLKALRSDDTAVYFCARQRTDYWDFDVWGSGTQVTVSS VL: DIQMTQSPSSLSASVGDRVTITCQANGYLNWYQQKPGKAPKLLIYDGSNLETGVPSRFSGSRWGQEYTLTISSLQPEDIATYFCQVYEFVGPGTNLDIKR	0.06	0.89	0.5	0.59
1.33.35-1 (antibody, human IgG1, kappa, V domains shown) VH: QVQLVQSGAEVKKPGASVRVSCKASGYNIRDYFIHWWRQAPGQGLQWVGWINPKTGQPNNPRQFQGRVTLTRHASWDFDTFSFYMDLKALRSDDTATYFCARQRSDYWDFDVWGSGTQVTVSS VL: DIQMTQSPSSLSASVGDRVTITCQANGYLNWYQQKPGKAPKLLIYDGSNLETGVPSRFSGSRWGQEYTLTISSLQPEDIATYFCQVYEFVGPGTNLDIKR	0.07	1.03	0.71	0.81
